Measurements taken from US20240148866A1 (DENALI THERAPEUTICS, published 2024).

Experiments:
[1] = target: T1, apical domain of human transferrin receptor (hTfR^apical) (human, UniProt P02786 198-378); test: SPR (Biacore T200), IgG:IDS captured on Protein A chip, hTfR apical domain injected, single-cycle kinetics
T1 construct: also called apical domain of hTfR
Method: (§1) The affinity of IgG:IDS for human transferrin receptor (hTfR) was determined by surface plasmon resonance on a Biacore™ T200 instrument using two methods, similar to previously described (Kariolis et al. 2020. Sci Transl Med 12(545):eaay1359). In Method 1, to evaluate monovalent TfR binding affinity, IgG:IDS was captured on a Protein A-coated Biacore™ Series S CM5 sensor chip and serial dilutions of the apical domain of hTfR (hTfR^apical) were injected over the captured sample. In Method 2, for evaluation of apparent hTfR binding affinity of IgG:IDS, biotinylated full-length hTfR was immobilized on a streptavidin-coated CM5 sensor chip, followed by injection of serial dilutions of IgG:IDS. For both methods, the single-cycle kinetics mode was used for sample injection (association time, 90 s; dissociation time, 600 s), and binding affinities were calculated using Biacore T200 Evaluation Software v3.0.

[2] = target: T2, biotinylated full-length human transferrin receptor (hTfR) (human, UniProt P02786 89-760, limits assumed, biotinylated (site not stated)); test: SPR (Biacore T200), biotinylated full-length hTfR on streptavidin chip, IgG:IDS injected, single-cycle kinetics; apparent (avid) affinity
T2 construct: Printed as 'biotinylated full-length hTfR', immobilized on a streptavidin chip; also called full-length hTfR; full-length receptor
T2 sequence (P02786 89-760 limits assumed): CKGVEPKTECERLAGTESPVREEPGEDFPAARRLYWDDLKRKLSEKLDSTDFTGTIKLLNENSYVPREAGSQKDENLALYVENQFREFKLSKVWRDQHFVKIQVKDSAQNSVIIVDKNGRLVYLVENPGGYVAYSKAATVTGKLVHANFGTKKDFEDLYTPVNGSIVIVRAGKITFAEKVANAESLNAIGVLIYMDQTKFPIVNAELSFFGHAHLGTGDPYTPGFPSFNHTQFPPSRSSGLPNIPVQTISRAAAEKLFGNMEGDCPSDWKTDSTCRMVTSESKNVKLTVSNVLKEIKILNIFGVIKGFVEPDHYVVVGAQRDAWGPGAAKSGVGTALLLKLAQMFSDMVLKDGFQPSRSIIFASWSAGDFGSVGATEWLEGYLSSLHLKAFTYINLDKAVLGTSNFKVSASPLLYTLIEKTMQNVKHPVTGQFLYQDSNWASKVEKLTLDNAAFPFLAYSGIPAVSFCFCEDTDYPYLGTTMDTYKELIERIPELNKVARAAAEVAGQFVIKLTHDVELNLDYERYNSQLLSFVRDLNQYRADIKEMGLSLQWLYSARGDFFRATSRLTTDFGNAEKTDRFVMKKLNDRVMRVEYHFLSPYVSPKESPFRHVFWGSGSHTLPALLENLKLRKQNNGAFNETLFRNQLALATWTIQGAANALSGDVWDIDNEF
Method: as §1

[3] = target: T3, Fc fusion of the 9th domain of human cation independent mannose-6-phosphate receptor (ciM6PR; Uniprot P11717) (human, UniProt P11717 1225-1363, limits assumed); test: ELISA: plate coated with the Fc fusion of ciM6PR domain 9, IgG:IDS titrated, detection with biotinylated anti-IDS antibody and streptavidin-HRP, A450
T3 construct: domain: 9th domain; It was coated on ELISA plates at 1 ug/mL
T3 sequence (P11717 1225-1363 limits assumed, one chain of several): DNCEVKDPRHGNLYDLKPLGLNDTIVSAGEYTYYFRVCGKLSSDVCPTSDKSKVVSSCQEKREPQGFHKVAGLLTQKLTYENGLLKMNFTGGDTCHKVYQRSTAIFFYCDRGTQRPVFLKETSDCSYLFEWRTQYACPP
Method: ELISA plates were coated with an Fc fusion of the 9th domain of human cation independent mannose-6-phosphate receptor (ciM6PR; Uniprot P11717) at 1 μg/mL in PBS overnight at 4° C. The following day, the plate was washed three times with wash buffer (PBS with 0.02% Tween-20) and blocking buffer (PBS with 0.02% Tween-20 and 5% BSA) was added to each well. Blocking was carried out for 1 hour at room temperature after which the plate was washed three times, and IgG:IDS was added to the first column of the plate at a concentration of 25 nM. A 3-fold serial dilution was performed across the plate. Primary incubation of the binding reactions was carried out for one hour at room temperature. After binding, the plate was washed three times, and binding was detected using biotinylated anti-IDS antibody diluted to 0.0625 μg/mL in sample buffer. The plate was incubated with a detection antibody for one hour at room temperature and then washed three times. Streptavidin-HRP, diluted 1:50,000 in sample buffer, was then added to each well. The plate was incubated for 30 minutes at room temperature and then washed three times. The ELISA was developed using TMB reagent. The ELISA plate was read on a HighRes BioTek Synergy plate reader, where the absorbance at 450 nm was recorded.

T1 sequence (P02786 198-378 limits assumed): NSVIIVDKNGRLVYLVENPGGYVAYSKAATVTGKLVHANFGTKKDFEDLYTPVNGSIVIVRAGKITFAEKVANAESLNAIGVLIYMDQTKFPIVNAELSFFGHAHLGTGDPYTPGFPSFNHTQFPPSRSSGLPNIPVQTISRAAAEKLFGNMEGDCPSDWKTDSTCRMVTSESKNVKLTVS

Kd [1]: 2.6 nM | Kd [2]: ~0.1 nM | EC50 (read off the curve) [3]: ~0.08 nM
B1: IgG:IDS fusion protein (anti-transferrin receptor antibody with an IDS enzyme linked to the C-terminus of each heavy chain) (antibody)
heavy: not shown
light: DIVMTQTPLSLSVTPGQPASISCRSSQSLVHSNGNTYLHWYLQKPGQSPQLLIYKVSNRFSGVPDRFSGSGSGTDFTLKISRVEAEDVGVYYCSQSTHVPWTFGQGTKVEIKRTVAAPSVFIFPPSDEQLKSGTASVVCLLNNFYPREAKVQWKVDNALQSGNSQESVTEQDSKDSTYSLSSTLTLSKADYEKHKVYACEVTHQGLSSPVTKSFNRGEC
modifications: formylglycine (fG) in place of the Cys in the IDS part in the form given as SEQ ID NO:18; glycans carry about 1.5-2.3 mol/mol M6P and about 15-16 mol/mol sialic acid per fusion protein
notes: Antibody-enzyme fusion with human IgG1 constant regions, expressed in ExpiCHO cells co-transfected with SUMF1
